No end group written: not given here.
Assays:
Assay in all cases: Kinase Profiling Assay
Assay type in all cases: biochemical
Conditions in all cases: peptide 100 μM
CaMKIV(h) = target: T1, CaMKIV(h) (Homo sapiens, UniProt Q16566)
T1 sequence (Q16566 1-473): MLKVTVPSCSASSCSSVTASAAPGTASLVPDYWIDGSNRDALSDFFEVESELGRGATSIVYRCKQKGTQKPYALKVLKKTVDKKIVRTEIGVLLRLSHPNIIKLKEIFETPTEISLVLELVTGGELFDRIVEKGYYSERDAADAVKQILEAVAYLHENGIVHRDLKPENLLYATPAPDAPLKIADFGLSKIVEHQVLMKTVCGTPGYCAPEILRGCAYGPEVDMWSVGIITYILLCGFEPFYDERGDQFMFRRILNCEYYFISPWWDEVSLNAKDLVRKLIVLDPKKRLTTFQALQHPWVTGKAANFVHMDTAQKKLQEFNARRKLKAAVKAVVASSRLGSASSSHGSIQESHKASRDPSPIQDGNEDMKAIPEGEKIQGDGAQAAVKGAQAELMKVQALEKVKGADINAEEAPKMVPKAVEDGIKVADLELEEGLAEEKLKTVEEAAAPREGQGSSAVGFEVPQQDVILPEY
Procedure, shortened: (§1)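 Activity remaining relative to an uninhibited control was determined by scintillation counting of labeled substrate bound to a negatively charged filter. Radiolabeled phosphate came from ATP; the substrate carried positive charge. Duplicate measurements, within a 266-kinase human panel.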

JAK2(h) = target: T2, JAK2(h) (Homo sapiens, UniProt O60674)
T2 construct: purchased Millipore
Procedure, shortened: as §1

Src(1-530)(h) = target: T3, Src(1-530)(h) (Homo sapiens, UniProt P12931)
T3 construct: Src(1-530)(h); purchased Millipore
Procedure, shortened: as §1

PAK4(h) = target: T4, PAK4(h) (Homo sapiens, UniProt O96013)
T4 construct: purchased Millipore
Procedure, shortened: as §1

SGK3(h) = target: T5, SGK3(h) (Homo sapiens, UniProt Q96BR1)
T5 construct: purchased Millipore
T5 sequence (Q96BR1 1-496): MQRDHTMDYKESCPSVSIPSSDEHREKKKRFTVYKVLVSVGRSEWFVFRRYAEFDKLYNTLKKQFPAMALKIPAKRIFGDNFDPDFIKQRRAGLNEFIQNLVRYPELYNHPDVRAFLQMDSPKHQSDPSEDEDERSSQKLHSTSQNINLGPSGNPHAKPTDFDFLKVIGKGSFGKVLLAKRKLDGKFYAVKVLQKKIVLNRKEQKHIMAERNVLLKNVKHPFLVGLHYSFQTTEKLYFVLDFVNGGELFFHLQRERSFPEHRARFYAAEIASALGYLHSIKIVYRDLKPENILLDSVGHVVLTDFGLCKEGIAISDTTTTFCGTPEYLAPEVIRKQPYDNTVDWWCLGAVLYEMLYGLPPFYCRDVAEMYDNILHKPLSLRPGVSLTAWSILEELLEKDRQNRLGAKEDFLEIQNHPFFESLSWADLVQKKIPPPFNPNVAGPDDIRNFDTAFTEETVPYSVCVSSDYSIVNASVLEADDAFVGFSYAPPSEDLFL
Procedure, shortened: as §1

PRK2(h) = PRK2(h) (Homo sapiens, UniProt Q16513)
Procedure, shortened: as §1

MRCKα(h) = target: T6, MRCKα(h) (Homo sapiens, UniProt Q5VT25)
T6 construct: purchased Millipore
Procedure, shortened: as §1

IKKβ(h) = target: T7, IKKβ(h) (Homo sapiens, UniProt O14920)
T7 construct: purchased Millipore
T7 sequence (O14920 1-756): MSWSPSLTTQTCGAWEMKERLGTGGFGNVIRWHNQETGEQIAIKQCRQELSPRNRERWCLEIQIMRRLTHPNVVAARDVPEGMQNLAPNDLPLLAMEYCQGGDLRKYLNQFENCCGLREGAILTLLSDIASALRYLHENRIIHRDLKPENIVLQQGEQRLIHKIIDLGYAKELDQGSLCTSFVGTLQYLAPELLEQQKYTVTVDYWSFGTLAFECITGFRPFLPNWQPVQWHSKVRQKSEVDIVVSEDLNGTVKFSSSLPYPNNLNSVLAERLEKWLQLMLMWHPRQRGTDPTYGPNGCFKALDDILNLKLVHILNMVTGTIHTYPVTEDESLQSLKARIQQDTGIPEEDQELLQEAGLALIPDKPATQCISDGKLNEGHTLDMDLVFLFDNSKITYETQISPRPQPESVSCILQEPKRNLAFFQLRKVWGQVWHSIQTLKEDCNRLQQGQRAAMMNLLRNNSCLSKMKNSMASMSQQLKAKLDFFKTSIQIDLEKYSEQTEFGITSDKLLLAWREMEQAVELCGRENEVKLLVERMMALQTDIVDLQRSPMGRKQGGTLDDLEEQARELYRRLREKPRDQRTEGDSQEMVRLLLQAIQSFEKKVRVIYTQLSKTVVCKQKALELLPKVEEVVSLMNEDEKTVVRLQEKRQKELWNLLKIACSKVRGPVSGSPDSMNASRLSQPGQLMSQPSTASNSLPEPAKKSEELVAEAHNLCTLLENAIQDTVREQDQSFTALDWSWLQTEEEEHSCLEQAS
Procedure, shortened: as §1

T4 sequence (O96013 whole entry): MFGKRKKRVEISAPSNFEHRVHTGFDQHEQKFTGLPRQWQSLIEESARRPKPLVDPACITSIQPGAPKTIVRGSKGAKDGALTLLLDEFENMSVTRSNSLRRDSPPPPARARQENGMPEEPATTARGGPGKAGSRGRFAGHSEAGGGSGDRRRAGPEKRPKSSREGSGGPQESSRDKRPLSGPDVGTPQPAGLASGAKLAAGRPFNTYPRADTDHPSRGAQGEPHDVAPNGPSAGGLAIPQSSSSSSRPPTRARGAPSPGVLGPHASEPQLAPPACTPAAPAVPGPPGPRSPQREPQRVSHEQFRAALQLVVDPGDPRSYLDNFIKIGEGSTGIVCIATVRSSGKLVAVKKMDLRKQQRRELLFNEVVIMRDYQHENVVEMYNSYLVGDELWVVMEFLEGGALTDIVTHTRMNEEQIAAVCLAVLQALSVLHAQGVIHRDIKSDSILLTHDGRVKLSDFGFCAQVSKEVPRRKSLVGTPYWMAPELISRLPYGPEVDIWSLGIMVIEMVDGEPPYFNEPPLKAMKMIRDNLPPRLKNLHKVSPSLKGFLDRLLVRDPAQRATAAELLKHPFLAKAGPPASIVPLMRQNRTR
Chain of PRK2(h) (Q16513 whole entry): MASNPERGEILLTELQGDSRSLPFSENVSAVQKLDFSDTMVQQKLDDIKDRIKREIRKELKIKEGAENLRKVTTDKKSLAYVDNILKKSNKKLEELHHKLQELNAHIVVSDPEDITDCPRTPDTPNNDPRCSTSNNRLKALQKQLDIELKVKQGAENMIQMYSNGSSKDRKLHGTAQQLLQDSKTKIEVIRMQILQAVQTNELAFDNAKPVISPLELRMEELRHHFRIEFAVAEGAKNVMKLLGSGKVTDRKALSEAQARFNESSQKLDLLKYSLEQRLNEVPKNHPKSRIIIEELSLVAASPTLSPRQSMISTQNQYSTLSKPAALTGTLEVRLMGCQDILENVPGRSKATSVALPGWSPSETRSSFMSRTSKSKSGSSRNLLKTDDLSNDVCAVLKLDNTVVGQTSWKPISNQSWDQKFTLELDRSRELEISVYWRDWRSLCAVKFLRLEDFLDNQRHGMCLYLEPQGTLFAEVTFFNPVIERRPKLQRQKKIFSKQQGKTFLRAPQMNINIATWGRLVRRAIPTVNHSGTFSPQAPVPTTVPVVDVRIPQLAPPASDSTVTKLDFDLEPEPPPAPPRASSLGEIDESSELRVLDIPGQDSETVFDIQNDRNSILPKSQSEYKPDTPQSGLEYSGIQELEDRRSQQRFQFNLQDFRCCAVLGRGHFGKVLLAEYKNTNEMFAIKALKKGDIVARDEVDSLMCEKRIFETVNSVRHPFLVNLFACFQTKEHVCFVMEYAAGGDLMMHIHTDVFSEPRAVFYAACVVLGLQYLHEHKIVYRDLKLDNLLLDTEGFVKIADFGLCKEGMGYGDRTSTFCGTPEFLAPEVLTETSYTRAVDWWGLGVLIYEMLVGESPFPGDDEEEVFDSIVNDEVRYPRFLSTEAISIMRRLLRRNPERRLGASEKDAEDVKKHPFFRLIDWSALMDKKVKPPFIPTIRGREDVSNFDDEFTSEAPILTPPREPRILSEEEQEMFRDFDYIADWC
T2 sequence (O60674 whole entry): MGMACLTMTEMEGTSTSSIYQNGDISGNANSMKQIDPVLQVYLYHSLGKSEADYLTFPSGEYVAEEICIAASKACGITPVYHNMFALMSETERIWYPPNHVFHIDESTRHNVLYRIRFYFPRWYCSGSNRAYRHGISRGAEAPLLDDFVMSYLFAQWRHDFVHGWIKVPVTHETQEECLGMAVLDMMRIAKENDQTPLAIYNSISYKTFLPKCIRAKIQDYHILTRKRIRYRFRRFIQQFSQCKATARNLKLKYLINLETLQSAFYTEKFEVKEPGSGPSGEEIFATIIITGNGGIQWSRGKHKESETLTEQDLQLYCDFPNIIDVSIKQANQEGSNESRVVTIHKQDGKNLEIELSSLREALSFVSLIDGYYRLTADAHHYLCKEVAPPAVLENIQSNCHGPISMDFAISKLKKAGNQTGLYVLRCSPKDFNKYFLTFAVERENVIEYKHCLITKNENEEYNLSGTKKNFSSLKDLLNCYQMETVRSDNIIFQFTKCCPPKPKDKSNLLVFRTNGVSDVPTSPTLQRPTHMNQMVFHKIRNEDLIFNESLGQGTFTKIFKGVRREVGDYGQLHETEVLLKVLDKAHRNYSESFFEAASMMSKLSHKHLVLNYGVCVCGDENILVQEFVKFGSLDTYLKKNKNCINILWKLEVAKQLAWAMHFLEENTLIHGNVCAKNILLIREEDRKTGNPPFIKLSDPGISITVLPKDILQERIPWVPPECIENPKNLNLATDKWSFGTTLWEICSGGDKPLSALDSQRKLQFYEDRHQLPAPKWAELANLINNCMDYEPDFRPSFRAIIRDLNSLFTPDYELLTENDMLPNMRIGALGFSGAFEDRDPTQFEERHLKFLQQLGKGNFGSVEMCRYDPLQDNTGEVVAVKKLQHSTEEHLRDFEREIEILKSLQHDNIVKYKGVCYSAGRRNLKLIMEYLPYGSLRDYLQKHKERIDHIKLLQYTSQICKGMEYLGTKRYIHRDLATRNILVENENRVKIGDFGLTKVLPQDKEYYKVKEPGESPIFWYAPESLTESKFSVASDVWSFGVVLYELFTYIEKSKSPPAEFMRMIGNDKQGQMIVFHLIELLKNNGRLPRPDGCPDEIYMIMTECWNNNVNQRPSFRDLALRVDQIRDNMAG
T6 sequence (Q5VT25 whole entry): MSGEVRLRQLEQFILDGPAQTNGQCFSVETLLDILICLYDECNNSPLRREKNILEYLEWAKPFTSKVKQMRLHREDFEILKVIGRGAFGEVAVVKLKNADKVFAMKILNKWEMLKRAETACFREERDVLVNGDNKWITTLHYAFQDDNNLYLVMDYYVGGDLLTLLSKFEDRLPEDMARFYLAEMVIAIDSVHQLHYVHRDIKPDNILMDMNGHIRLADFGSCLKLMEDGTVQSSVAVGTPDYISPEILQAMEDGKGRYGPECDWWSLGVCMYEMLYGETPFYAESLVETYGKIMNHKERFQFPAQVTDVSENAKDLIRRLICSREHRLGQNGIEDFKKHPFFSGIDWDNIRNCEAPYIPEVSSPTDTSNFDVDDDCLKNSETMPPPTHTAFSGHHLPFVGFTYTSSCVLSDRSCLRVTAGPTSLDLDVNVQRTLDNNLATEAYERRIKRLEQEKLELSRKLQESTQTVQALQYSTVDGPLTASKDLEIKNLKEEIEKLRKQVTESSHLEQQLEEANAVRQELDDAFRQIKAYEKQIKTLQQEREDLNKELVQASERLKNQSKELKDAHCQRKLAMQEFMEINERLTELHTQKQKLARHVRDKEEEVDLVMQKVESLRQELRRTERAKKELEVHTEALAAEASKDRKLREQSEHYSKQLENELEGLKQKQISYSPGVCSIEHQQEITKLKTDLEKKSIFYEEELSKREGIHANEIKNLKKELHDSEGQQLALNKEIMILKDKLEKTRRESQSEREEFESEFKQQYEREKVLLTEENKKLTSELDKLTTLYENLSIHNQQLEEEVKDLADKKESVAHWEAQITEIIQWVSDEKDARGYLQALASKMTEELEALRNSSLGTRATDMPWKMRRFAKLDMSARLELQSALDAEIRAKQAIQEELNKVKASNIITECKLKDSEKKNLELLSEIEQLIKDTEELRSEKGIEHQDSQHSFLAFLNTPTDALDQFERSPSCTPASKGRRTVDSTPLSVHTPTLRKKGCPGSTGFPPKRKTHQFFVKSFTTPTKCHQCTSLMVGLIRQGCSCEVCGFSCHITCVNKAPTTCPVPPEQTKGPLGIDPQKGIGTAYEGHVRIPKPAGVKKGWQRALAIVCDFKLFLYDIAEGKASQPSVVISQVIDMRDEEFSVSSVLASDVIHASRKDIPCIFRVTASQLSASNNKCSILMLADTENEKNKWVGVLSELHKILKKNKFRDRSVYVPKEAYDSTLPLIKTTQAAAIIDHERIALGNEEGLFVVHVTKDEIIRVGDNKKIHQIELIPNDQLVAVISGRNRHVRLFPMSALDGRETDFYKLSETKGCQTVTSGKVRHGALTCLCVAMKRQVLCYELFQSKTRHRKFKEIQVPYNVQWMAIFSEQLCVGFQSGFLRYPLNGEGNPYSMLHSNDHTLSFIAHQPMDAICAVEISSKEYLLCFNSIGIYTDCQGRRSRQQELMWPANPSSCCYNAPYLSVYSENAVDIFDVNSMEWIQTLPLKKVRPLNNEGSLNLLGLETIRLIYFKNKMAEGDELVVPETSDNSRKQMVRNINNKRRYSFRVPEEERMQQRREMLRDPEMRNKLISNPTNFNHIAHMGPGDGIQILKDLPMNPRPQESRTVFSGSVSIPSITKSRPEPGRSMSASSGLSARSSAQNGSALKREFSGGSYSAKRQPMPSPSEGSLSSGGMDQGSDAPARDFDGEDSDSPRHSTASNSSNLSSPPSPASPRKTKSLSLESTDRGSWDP

## YARAAARQARAKALNRQLGVA (Mammal) [MMI-0200]
CaMKIV(h)
  % activity: 71%
JAK2(h)
  % activity: 131%
Src(1-530)(h)
  % activity: 75%
PAK4(h)
  % activity: 98%
SGK3(h)
  % activity: 58%
PRK2(h)
  % activity: 74%

## YARAAARQARAKALARQLGVAA [MMI-0100]
JAK2(h)
  % activity: 89%
MRCKα(h)
  % activity: 98%
PAK4(h)
  % activity: 92%
SGK3(h)
  % activity: 95%
PRK2(h)
  % activity: 72%

## HRRIKAWLKKIKALARQLGVAA (Mammal) [MMI-0500]
IKKβ(h)
  % activity: 71%
CaMKIV(h)
  % activity: -1%
JAK2(h)
  % activity: 49%
Src(1-530)(h)
  % activity: 21%
MRCKα(h)
  % activity: 5%
PAK4(h)
  % activity: 86%
SGK3(h)
  % activity: -3%
PRK2(h)
  % activity: 7%

## KAFAKLAARLYRKALARQLGVAA [MMI-0400]
IKKβ(h)
  % activity: 84%
CaMKIV(h)
  % activity: 18%
Src(1-530)(h)
  % activity: 19%
MRCKα(h)
  % activity: 97%
PAK4(h)
  % activity: 89%
SGK3(h)
  % activity: 8%
PRK2(h)
  % activity: 27%

## FAKLAARLYRKALARQLGVAA [MMI-0300]
IKKβ(h)
  % activity: 84%
CaMKIV(h)
  % activity: 17%
JAK2(h)
  % activity: 133%
Src(1-530)(h)
  % activity: 23%
PAK4(h)
  % activity: 94%
SGK3(h)
  % activity: 10%
PRK2(h)
  % activity: 33%
